# Laboratory results published in article PMC3507513 (Molecular cell, 2010).
# T1: HET-S(1–227) (Podospora anserina), B2ACC7
# T1 chain: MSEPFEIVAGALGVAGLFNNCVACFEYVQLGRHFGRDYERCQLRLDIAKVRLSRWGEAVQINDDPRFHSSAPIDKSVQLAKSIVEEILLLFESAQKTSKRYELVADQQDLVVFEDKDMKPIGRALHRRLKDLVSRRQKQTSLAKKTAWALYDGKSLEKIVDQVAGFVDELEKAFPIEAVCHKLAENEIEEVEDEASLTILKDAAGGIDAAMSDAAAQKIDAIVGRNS
# How the values were obtained:
# NMR titration = target: the molecule itself; assay: NMR titration
# [1] = target: T1, HET-S(1–227) (Podospora anserina), …; assay: […]; details: remark: other sources report otherwise
# [2] = target: T1, HET-S(1–227) (Podospora anserina), …; assay: NMR titration; details: remark: other sources report otherwise
Binder,Kd (NMR titration),stoichiometry N [1],Kd [2]
"HET-s(1–227) (domain or fragment, Podospora anserina, UniProt Q03689 1-227, looked up) MSEPFGIVAGALNVAGLFNNCVDCFEYVQLGRPFGRDYERCQLRLDIAKARLSRWGEAVKINDDPRFHSDAPTDKSVQLAKSIVEEILLLFESAQKTSKRYELVADQQDLVVFEDKDMKPIGRALHRRLNDLVSRRQKQTSLAKKTAWALYDGKSLEKIVDQVARFVDELEKAFPIEAVCHKLAEIEIEEVEDEASLTILKDAAGGIDAAMSDAAAQKIDAIVGRNS",320 ± 37 µM,–,–
"HET-S(1–227), B2ACC7 1-227 (domain or fragment) MSEPFEIVAGALGVAGLFNNCVACFEYVQLGRHFGRDYERCQLRLDIAKVRLSRWGEAVQINDDPRFHSSAPIDKSVQLAKSIVEEILLLFESAQKTSKRYELVADQQDLVVFEDKDMKPIGRALHRRLKDLVSRRQKQTSLAKKTAWALYDGKSLEKIVDQVAGFVDELEKAFPIEAVCHKLAENEIEEVEDEASLTILKDAAGGIDAAMSDAAAQKIDAIVGRNS",–,2,78 µM
